# From FireProtDB (doi:10.1110/ps.051838206)
# “And” between values parts separate entries of the source, which are not always exact repeats. Identical values can stand only once.
# B1: Azurin wild type, P00282 (protein)
# chain: MLRKLAAVSLLSLLSAPLLAAECSVDIQGNDQMQFNTNAITVDKSCKQFTVNLSHPGNLPKNVMGHNWVLSTAADMQGVVTDGMASGLDKDYLKPDDSRVIAHTKLIGSGEKDSVTFDVSKLKEGEQYMFFCTFPGHSALMKGTLTLK
# Details: Pseudomonas aeruginosa (strain ATCC 15692 / DSM 22644 / CIP 104116 / JCM 14847 / LMG 12228 / 1C / PRS 101 / PAO1); pH 7; 25 °C; GdnHCl; Fluorescence; Tris-HCl 100 mM; reversible: Yes; whole UniProt chain shown
protein,measurement,value
B1,unfolding free energy,5.98 kcal/mol and 12.9 kcal/mol
